One block for each molecule: values may come before it. Numbered stars: 1 amine (or outer) side, 2 acyl side, 3 side chain; on linkers, the order of the positions; unused ones are H or OH. Bridge positions count the residues as written; N and C are the ends. Square brackets hold non-standard residues; d marks the D form. Side chains are listed from the residue outwards. Ends that are not written are not given here. Peptide text beside a SMILES is read from it. * marks the point of attachment. C20 diacid = O=C(O)CCCCCCCCCCCCCCCCCCC(=O)*; γGlu = O=C(O)[C@H](CCC(=O)[*:2])N[*:1]; Hyp = O=C(O)[C@@H]1C[C@@H](O)CN1; AEEA = NCCOCCOCC(=O)O
Assays:
[1] = molecular target: T1, hAMY3 receptor (Homo sapiens, UniProt O60896+P30988); assay: cAMP assay for in vitro receptor activation, hAMY3-R; type: cell-based; conditions: cAMP assay, hAMY3 receptor; read-out: hAMY3R EC50
T1 sequence (P30988 25-474): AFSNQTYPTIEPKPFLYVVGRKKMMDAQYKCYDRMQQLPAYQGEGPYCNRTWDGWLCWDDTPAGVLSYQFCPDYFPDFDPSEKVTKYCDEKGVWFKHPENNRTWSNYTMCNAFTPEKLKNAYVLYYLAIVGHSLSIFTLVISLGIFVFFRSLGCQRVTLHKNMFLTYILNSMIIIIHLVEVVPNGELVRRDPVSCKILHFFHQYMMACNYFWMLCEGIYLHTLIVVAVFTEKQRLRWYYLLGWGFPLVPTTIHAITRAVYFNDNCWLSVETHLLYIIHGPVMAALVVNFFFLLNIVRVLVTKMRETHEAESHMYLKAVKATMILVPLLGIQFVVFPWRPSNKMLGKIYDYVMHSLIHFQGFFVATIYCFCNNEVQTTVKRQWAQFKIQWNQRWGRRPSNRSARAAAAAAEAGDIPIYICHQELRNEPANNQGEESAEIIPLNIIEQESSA
T1 sequence (O60896 24-148 partner): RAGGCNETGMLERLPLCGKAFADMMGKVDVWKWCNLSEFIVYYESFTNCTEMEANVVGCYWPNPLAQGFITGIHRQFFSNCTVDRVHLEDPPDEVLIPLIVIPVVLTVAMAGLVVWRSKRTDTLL
Protocol: General Protocols for cAMP Assays for Measuring In Vitro Receptor Activation
Cells stably overexpressing the hAMY3 receptor were obtained from Ogeda (now Astellas Pharma), sub-cloned and a monoclonal cell-line with an appropriate assay-window was expanded, aliquoted and frozen.
An aliquot was thawed and plated in DPBS with 0.05% casein and 0.5 mM IBMX as 2000 cells/well in a 384-well format. The cells were then immediately stimulated for 30 min at room temperature with graded doses of test compound using human amylin (Bachem, cat no. H-7905) as a positive control. cAMP accumulation was measured using a Cisbio assay for Gs coupled receptors (cat. no. 62AM4PEC), where the assay reagents were added as per the manufacturer's instructions and time-resolved fluorescence energy transfer recorded after one hour.

[2] = molecular target: T2, hAMY3R (human, UniProt P30988); assay: cell-based or functional assay
T2 sequence 1: T1 sequence (P30988 25-474)
T2 sequence 2: T1 sequence (O60896 24-148 partner)

[3] = molecular target: hAM1R (human, UniProt Q16602); assay: cell-based or functional assay

EC50 [1]: 0.014 nM
Molecule: CC[C@H](C)[C@H](NC(=O)[C@H](CCCCN)NC(=O)[C@@H](NC(=O)[C@H](CCCNC(=N)N)NC(=O)[C@@H]1CCCN1C(=O)[C@H](C)NC(=O)[C@@H](NC(=O)[C@H](CC(N)=O)NC(=O)[C@H](CC(=O)O)NC(=O)[C@H](CCCCN)NC(=O)[C@H](CC(=O)O)NC(=O)[C@H](CCCCN)NC(=O)[C@H](CC(=O)O)NC(=O)[C@@H](NC(=O)[C@H](Cc1ccccc1)NC(=O)[C@H](CCC(N)=O)NC(=O)[C@H](Cc1ccc(O)cc1)NC(=O)[C@@H](NC(=O)[C@H](CCC(N)=O)NC(=O)[C@H](Cc1c[nH]cn1)NC(=O)[C@H](C)NC(=O)[C@H](CC(C)C)NC(=O)[C@H](CCCNC(=N)N)NC(=O)[C@H](CCC(N)=O)NC(=O)[C@@H](NC(=O)[C@@H](NC(=O)[C@@H]1CSSC[C@H](NC(=O)CN)C(=O)N[C@@H](CCCNC(=N)N)C(=O)N[C@@H](Cc2ccccc2)C(=O)NCC(=O)N[C@@H]([C@@H](C)O)C(=O)N1)[C@@H](C)O)C(C)C)[C@@H](C)CC)[C@@H](C)O)C(C)C)[C@@H](C)O)C(=O)NCC(=O)N1CCC[C@H]1C(=O)N[C@@H](CC(N)=O)C(=O)NCC(=O)N[C@@H](Cc1ccc(O)cc1)C(N)=O [compound 367] (H-GCRFGTCTVQRLAHQIYQFTDKDKDNVAPRTKIGPNGY-NH2; disulfide 2-7; N-terminus assumed)

EC50 [1]: 0.006 nM
Molecule: CC[C@H](C)[C@H](NC(=O)[C@H](CCC(N)=O)NC(=O)[C@H](Cc1c[nH]cn1)NC(=O)[C@H](C)NC(=O)[C@H](CC(C)C)NC(=O)[C@H](CCCNC(=N)N)NC(=O)[C@H](CCC(N)=O)NC(=O)[C@@H](NC(=O)[C@@H](NC(=O)[C@@H]1CSSC[C@H](NC(=O)[C@@H](N)CCCCN)C(=O)N[C@@H](CC(N)=O)C(=O)N[C@@H](Cc2ccccc2)C(=O)N[C@@H](C)C(=O)N[C@@H]([C@@H](C)O)C(=O)N1)[C@@H](C)O)C(C)C)C(=O)N[C@@H](Cc1ccc(O)cc1)C(=O)N[C@@H](CCC(N)=O)C(=O)N[C@@H](Cc1ccccc1)C(=O)N[C@H](C(=O)N[C@@H](CC(=O)O)C(=O)N[C@@H](CCCCN)C(=O)N[C@@H](CC(=O)O)C(=O)N[C@@H](CCCCN)C(=O)N[C@@H](CC(=O)O)C(=O)N[C@@H](CC(N)=O)C(=O)N[C@H](C(=O)N[C@@H](C)C(=O)N1CCC[C@H]1C(=O)N[C@@H](CCCNC(=N)N)C(=O)N[C@H](C(=O)N[C@@H](CCCCN)C(=O)N[C@H](C(=O)NCC(=O)N[C@@H](CO)C(=O)N[C@@H](CC(N)=O)C(=O)NCC(=O)N[C@@H](Cc1ccc(O)cc1)C(N)=O)C(C)C)[C@@H](C)O)C(C)C)[C@@H](C)O [compound 361] (H-KCNFATCTVQRLAHQIYQFTDKDKDNVAPRTKVGSNGY-NH2; disulfide 2-7; N-terminus assumed)

EC50 [1]: 0.047 nM
Molecule: CC[C@H](C)[C@H](NC(=O)[C@H](CCCCN)NC(=O)[C@H](CO)NC(=O)[C@H](CCCNC(=N)N)NC(=O)[C@@H]1CCCN1C(=O)[C@H](C)NC(=O)[C@@H](NC(=O)[C@H](CC(N)=O)NC(=O)[C@H](CC(=O)O)NC(=O)[C@H](CCCCN)NC(=O)[C@H](CC(=O)O)NC(=O)[C@H](CCCCN)NC(=O)[C@H](CC(=O)O)NC(=O)[C@@H](NC(=O)[C@H](Cc1ccccc1)NC(=O)[C@H](CCC(N)=O)NC(=O)[C@H](Cc1ccc(O)cc1)NC(=O)[C@@H](NC(=O)[C@H](CCC(N)=O)NC(=O)[C@H](Cc1c[nH]cn1)NC(=O)[C@H](C)NC(=O)[C@H](CC(C)C)NC(=O)[C@H](CCCNC(=N)N)NC(=O)[C@H](CCC(N)=O)NC(=O)[C@@H](NC(=O)[C@@H](NC(=O)[C@@H]1CSSC[C@H](NC(=O)CN)C(=O)N[C@@H](CCCNC(=N)N)C(=O)N[C@@H]([C@@H](C)O)C(=O)NCC(=O)N[C@@H]([C@@H](C)O)C(=O)N1)[C@@H](C)O)C(C)C)[C@@H](C)CC)[C@@H](C)O)C(C)C)C(=O)NCC(=O)N1CCC[C@H]1C(=O)N[C@@H](CC(N)=O)C(=O)NCC(=O)N1C[C@H](O)C[C@H]1C(N)=O [compound 157] (H-GCRTGTCTVQRLAHQIYQFTDKDKDNVAPRSKIGPNG[Hyp]-NH2; disulfide 2-7; N-terminus assumed)

EC50 [1]: 0.011 nM
Molecule: CC[C@H](C)[C@H](NC(=O)[C@H](CCC(N)=O)NC(=O)[C@H](Cc1ccc(O)cc1)NC(=O)[C@H](C)NC(=O)[C@H](CC(C)C)NC(=O)[C@H](CCCNC(=N)N)NC(=O)[C@H](CCC(N)=O)NC(=O)[C@@H](NC(=O)[C@@H](NC(=O)[C@@H]1CSSC[C@H](NC(=O)[C@H](CCCCN)NC(=O)CC[C@H](NC(=O)CCCCCCCCCCCCCCCCCCC(=O)O)C(=O)O)C(=O)N[C@@H](CC(N)=O)C(=O)N[C@@H]([C@@H](C)O)C(=O)N[C@@H](C)C(=O)N[C@@H]([C@@H](C)O)C(=O)N1)[C@@H](C)O)C(C)C)C(=O)N[C@@H](Cc1ccc(O)cc1)C(=O)N[C@@H](CCC(N)=O)C(=O)N[C@@H](Cc1ccccc1)C(=O)N[C@H](C(=O)N[C@@H](CC(=O)O)C(=O)N[C@@H](CCCCN)C(=O)N[C@@H](CC(=O)O)C(=O)N[C@@H](CCCCN)C(=O)N[C@@H](CC(=O)O)C(=O)N[C@@H](CC(N)=O)C(=O)N[C@H](C(=O)N[C@@H](C)C(=O)N1CCC[C@H]1C(=O)N1CCC[C@H]1C(=O)N[C@H](C(=O)N[C@@H](CC(N)=O)C(=O)N[C@H](C(=O)NCC(=O)N[C@@H](CO)C(=O)N[C@@H](CC(N)=O)C(=O)NCC(=O)N1C[C@H](O)C[C@H]1C(N)=O)C(C)C)[C@@H](C)O)C(C)C)[C@@H](C)O [compound 47] ({C20 diacid-γGlu}-KCNTATCTVQRLAYQIYQFTDKDKDNVAPPTNVGSNG[Hyp]-NH2; disulfide 2-7)

hAMY3R EC50 (cAMP) [2]: 0.01 nM
hAM1R EC50 (cAMP) [3]: > 5000 nM
B1: SEQ ID NO: 41 (peptide)
peptide: KCNTATCTVQRLAEQIYQFTDKDKDK([AEEA-AEEA-γGlu-C20 diacid])VAPPTNVGSNG[Hyp]-NH2
modifications: disulfide 2-7 (inferred); not fully specified (N-terminus); ends not checked

hAMY3R EC50 (cAMP) [2]: 0.011 nM
hAM1R EC50 (cAMP) [3]: 78.5 nM
B2: SEQ ID NO: 46 (peptide)
peptide: GCRFGTCTVQRLAHQIYQFTDKDKDNVAPRTNIGPQG[Hyp]-NH2
modifications: disulfide 2-7 (inferred); ends not checked

hAMY3R EC50 (cAMP) [2]: 0.01 nM
hAM1R EC50 (cAMP) [3]: > 5000 nM
B3: SEQ ID NO: 40 (peptide)
peptide: KCNTATCTVQRLAEQIYQFTDKDKK([AEEA-AEEA-γGlu-C20 diacid])NVAPPTNVGSNG[Hyp]-NH2
modifications: disulfide 2-7 (inferred); not fully specified (N-terminus); ends not checked

hAMY3R EC50 (cAMP) [2]: 0.01 nM
hAM1R EC50 (cAMP) [3]: > 5000 nM
B4: SEQ ID NO: 43 (peptide)
peptide: KCNTATCTVQRLAHQIYQFTDKAKDNVAPPTNVGSNG[Hyp]-NH2
modifications: disulfide 2-7 (inferred); ends not checked

hAMY3R EC50 (cAMP) [2]: 0.01 nM
hAM1R EC50 (cAMP) [3]: > 5000 nM
B5: SEQ ID NO: 44 (peptide)
peptide: KCNTATCTVQRLAEQIYQFTDKDKDNVAPPYNEGSNG[Hyp]-NH2
modifications: disulfide 2-7 (inferred); ends not checked

hAMY3R EC50 (cAMP) [2]: 0.01 nM
hAM1R EC50 (cAMP) [3]: > 5000 nM
B6: SEQ ID NO: 42 (peptide)
peptide: KCNTATCTVQRLAHQIYAFTDKDKDNVAPPTNVGSNG[Hyp]-NH2
modifications: disulfide 2-7 (inferred); ends not checked

hAMY3R EC50 (cAMP) [2]: 0.011 nM
hAM1R EC50 (cAMP) [3]: 2980 nM
B7: SEQ ID NO: 49 (peptide)
peptide: GCRTGTCTVQRLAHQIYQFTDKDKDNVAPRTNVGPQG[Hyp]-NH2
modifications: disulfide 2-7 (inferred); ends not checked

hAMY3R EC50 (cAMP) [2]: 0.113 nM
hAM1R EC50 (cAMP) [3]: 5.03 nM
B8: SEQ ID NO: 392 (peptide)
peptide: {C20 diacid-γGlu}-GCRFGTCTVQRLAHFLYQFTDKDKDNVAPRTKVGPQGY-NH2
modifications: disulfide 2-7 (inferred); ends not checked

hAMY3R EC50 (cAMP) [2]: 0.011 nM
hAM1R EC50 (cAMP) [3]: 50.5 nM
B9: SEQ ID NO: 45 (peptide)
peptide: GCRFGTCTVQRLAHQIYQFTDKDKDNVAPRTKVGPQG[Hyp]-NH2
modifications: disulfide 2-7 (inferred); ends not checked

hAMY3R EC50 (cAMP) [2]: 0.011 nM
hAM1R EC50 (cAMP) [3]: 761 nM
B10: SEQ ID NO: 48 (peptide)
peptide: {C20 diacid-γGlu}-KCNTATCTVQRLAHQIYQYTDKDKDNVAPPTNVGSNG[Hyp]-NH2
modifications: disulfide 2-7 (inferred); ends not checked

hAMY3R EC50 (cAMP) [2]: 0.011 nM
hAM1R EC50 (cAMP) [3]: 500 nM
B11: SEQ ID NO: 47 (peptide)
peptide: {C20 diacid-γGlu}-KCNTATCTVQRLAYQIYQFTDKDKDNVAPPTNVGSNG[Hyp]-NH2
modifications: disulfide 2-7 (inferred); ends not checked
